Consider two molecules from PMC3031960 (Journal of immunology (Baltimore, Md. : 1950), 2010).

The target of the assay is T1, pJAK2(1001–1013).
T1 peptide: {K(Palm)}-LPQDKE[pY]YKVKEP
Nature of the assay: ELISA. In general terms: ELISA stands for enzyme-linked immunosorbent assay.

Numbered stars: 1 amine (or outer) side, 2 acyl side, 3 side chain; on linkers, the order of the positions; unused ones are H or OH. Square brackets hold non-standard residues; d marks the D form. Ends that are not written are not given here. K(Palm) = CCCCCCCCCCCCCCCC(=O)NCCCC[C@H](N[*:1])C(=O)[*:2]; pY = N[C@@H](Cc1ccc(OP(=O)(O)O)cc1)C(=O)O

In the case of {K(Palm)}-DTHFRTFRSHSDYRRI [SOCS1-KIR], the binding result is reported as “binds”.

{K(Palm)}-LRLKTFSSKSEYQLVV [SOCS3-KIR]: the binding result is recorded as “binds”.
